Laboratory results: the supplement of paper PMC9112550, “Optimization of the antimicrobial peptide Bac7 by deep mutational scanning” (BMC Biology, 2022)

tested on: Escherichia coli TOP10; test: shrunken log2 fold change of peptide-encoding DNA abundance (4.5 h post-induction vs induction); higher = less antimicrobial activity (less host growth inhibition); conditions: time post-induction: 4.5 h; library: site-saturation at positions 5, 18, 19, 20
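Further: peptides expressed intracellularly from a pBAD plasmid library in pooled LB shake-flask culture, induced with 0.3% L-arabinose, DNA abundance read by NGS, three biological replicates, DESeq2 with apeglm shrinkage.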

| Sequence | shrunken log2 fold change |
| --- | --- |
| RRIRLRPPRLPRPRPRPCWVPRP | -0.00196 |
| RRIRLRPPRLPRPRPRPCYGPRP | -0.0306 |
| RRIRLRPPRLPRPRPRPDACPRP | 0.252 |
| RRIRLRPPRLPRPRPRPDCVPRP | 0.0107 |
| RRIRLRPPRLPRPRPRPDCYPRP | -0.558 |
| RRIRLRPPRLPRPRPRPDEEPRP | 0.138 |
| RRIRLRPPRLPRPRPRPDESPRP | 0.148 |
| RRIRLRPPRLPRPRPRPDGKPRP | -0.0351 |
| RRIRLRPPRLPRPRPRPDHAPRP | 0.0162 |
| RRIRLRPPRLPRPRPRPDHRPRP | -0.041 |
| RRIRLRPPRLPRPRPRPDHSPRP | -0.0489 |
| RRIRLRPPRLPRPRPRPDKCPRP | -0.0114 |
| RRIRLRPPRLPRPRPRPDKEPRP | 0.0143 |
| RRIRLRPPRLPRPRPRPDLCPRP | 0.307 |
| RRIRLRPPRLPRPRPRPDLPPRP | -0.0128 |
| RRIRLRPPRLPRPRPRPDMEPRP | 0.0384 |
| RRIRLRPPRLPRPRPRPDMNPRP | -0.155 |
| RRIRLRPPRLPRPRPRPDNFPRP | 0.0569 |
| RRIRLRPPRLPRPRPRPDNKPRP | -0.357 |
| RRIRLRPPRLPRPRPRPDPAPRP | 0.752 |
| RRIRLRPPRLPRPRPRPDRAPRP | 0.0122 |
| RRIRLRPPRLPRPRPRPDRHPRP | -0.279 |
| RRIRLRPPRLPRPRPRPDRSPRP | -0.0286 |
| RRIRLRPPRLPRPRPRPDRYPRP | -0.063 |
| RRIRLRPPRLPRPRPRPDSCPRP | -0.851 |

| Sequence | shrunken log2 fold change |
| --- | --- |
| RRIRLRPPRLPRPRPRPDTGPRP | -0.243 |
| RRIRLRPPRLPRPRPRPDVEPRP | -0.0825 |
| RRIRLRPPRLPRPRPRPDWIPRP | -0.0697 |
| RRIRLRPPRLPRPRPRPDWMPRP | -0.152 |
| RRIRLRPPRLPRPRPRPDYAPRP | -0.224 |
| RRIRLRPPRLPRPRPRPDYCPRP | 0.0561 |
| RRIRLRPPRLPRPRPRPDYIPRP | -0.161 |
| RRIRLRPPRLPRPRPRPEADPRP | 0.357 |
| RRIRLRPPRLPRPRPRPEDDPRP | 0.0572 |
| RRIRLRPPRLPRPRPRPEEAPRP | 0.495 |
| RRIRLRPPRLPRPRPRPEENPRP | -0.00256 |
| RRIRLRPPRLPRPRPRPEFEPRP | 0.0191 |
| RRIRLRPPRLPRPRPRPEHNPRP | -0.204 |
| RRIRLRPPRLPRPRPRPEIAPRP | 0.167 |
| RRIRLRPPRLPRPRPRPEIVPRP | 0.0118 |
| RRIRLRPPRLPRPRPRPEKCPRP | -0.0157 |
| RRIRLRPPRLPRPRPRPEMIPRP | 0.0183 |
| RRIRLRPPRLPRPRPRPENDPRP | -0.336 |
| RRIRLRPPRLPRPRPRPENNPRP | -0.406 |
| RRIRLRPPRLPRPRPRPEPMPRP | -0.0888 |
| RRIRLRPPRLPRPRPRPEPRPRP | 0.74 |
| RRIRLRPPRLPRPRPRPESRPRP | 0.0418 |
| RRIRLRPPRLPRPRPRPEVKPRP | -0.108 |
| RRIRLRPPRLPRPRPRPEVPPRP | 0.0129 |
| RRIRLRPPRLPRPRPRPEVTPRP | -0.046 |

| Sequence | shrunken log2 fold change |
| --- | --- |
| RRIRLRPPRLPRPRPRPEYMPRP | -0.741 |
| RRIRLRPPRLPRPRPRPFCIPRP | -0.22 |
| RRIRLRPPRLPRPRPRPFDWPRP | -0.133 |
| RRIRLRPPRLPRPRPRPFEMPRP | -0.00193 |
| RRIRLRPPRLPRPRPRPFFDPRP | -0.0987 |
| RRIRLRPPRLPRPRPRPFFPPRP | -0.225 |
| RRIRLRPPRLPRPRPRPFFTPRP | -0.144 |
| RRIRLRPPRLPRPRPRPFFYPRP | -0.343 |
| RRIRLRPPRLPRPRPRPFGDPRP | -0.186 |
| RRIRLRPPRLPRPRPRPFGPPRP | 0.0996 |
| RRIRLRPPRLPRPRPRPFGQPRP | -0.11 |
| RRIRLRPPRLPRPRPRPFHNPRP | -0.336 |
| RRIRLRPPRLPRPRPRPFHVPRP | -0.0193 |
| RRIRLRPPRLPRPRPRPFIGPRP | -0.305 |
| RRIRLRPPRLPRPRPRPFIIPRP | -0.271 |
| RRIRLRPPRLPRPRPRPFKAPRP | 0.181 |
| RRIRLRPPRLPRPRPRPFLCPRP | -0.353 |
| RRIRLRPPRLPRPRPRPFMGPRP | -0.141 |
| RRIRLRPPRLPRPRPRPFNDPRP | 0.0825 |
| RRIRLRPPRLPRPRPRPFNWPRP | -0.223 |
| RRIRLRPPRLPRPRPRPFQMPRP | -0.193 |
| RRIRLRPPRLPRPRPRPFRFPRP | -0.212 |
| RRIRLRPPRLPRPRPRPFSWPRP | -0.213 |
| RRIRLRPPRLPRPRPRPFVLPRP | -0.513 |
| RRIRLRPPRLPRPRPRPFWMPRP | -0.0876 |

| Sequence | shrunken log2 fold change |
| --- | --- |
| RRIRLRPPRLPRPRPRPGATPRP | 0.527 |
| RRIRLRPPRLPRPRPRPGCFPRP | 0.269 |
| RRIRLRPPRLPRPRPRPGCPPRP | 0.0643 |
| RRIRLRPPRLPRPRPRPGDSPRP | -0.23 |
| RRIRLRPPRLPRPRPRPGFSPRP | -0.161 |
| RRIRLRPPRLPRPRPRPGGIPRP | -0.0154 |
| RRIRLRPPRLPRPRPRPGGQPRP | 0.319 |
| RRIRLRPPRLPRPRPRPGKEPRP | 0.0418 |
| RRIRLRPPRLPRPRPRPGLRPRP | 0.234 |
| RRIRLRPPRLPRPRPRPGMAPRP | 0.145 |
| RRIRLRPPRLPRPRPRPGMLPRP | 0.0285 |
| RRIRLRPPRLPRPRPRPGMNPRP | -0.72 |
| RRIRLRPPRLPRPRPRPGPLPRP | 0.287 |
| RRIRLRPPRLPRPRPRPGQAPRP | 0.39 |
| RRIRLRPPRLPRPRPRPGRFPRP | 0.226 |
| RRIRLRPPRLPRPRPRPGRIPRP | -0.136 |
| RRIRLRPPRLPRPRPRPGSHPRP | 0.0329 |
| RRIRLRPPRLPRPRPRPGSPPRP | 0.475 |
| RRIRLRPPRLPRPRPRPGSSPRP | 0.0118 |
| RRIRLRPPRLPRPRPRPGTIPRP | -0.689 |
| RRIRLRPPRLPRPRPRPGTLPRP | 0.0174 |
| RRIRLRPPRLPRPRPRPGTWPRP | 0.0714 |
| RRIRLRPPRLPRPRPRPGVRPRP | 0.256 |
| RRIRLRPPRLPRPRPRPGWKPRP | -0.0726 |
| RRIRLRPPRLPRPRPRPHASPRP | -0.046 |

| Sequence | shrunken log2 fold change |
| --- | --- |
| RRIRLRPPRLPRPRPRPHDEPRP | 0.0746 |
| RRIRLRPPRLPRPRPRPHEDPRP | -0.682 |
| RRIRLRPPRLPRPRPRPHFNPRP | -0.386 |
| RRIRLRPPRLPRPRPRPHFQPRP | -0.131 |
| RRIRLRPPRLPRPRPRPHFYPRP | -0.303 |
| RRIRLRPPRLPRPRPRPHGGPRP | -0.234 |
| RRIRLRPPRLPRPRPRPHIWPRP | -0.278 |
| RRIRLRPPRLPRPRPRPHKGPRP | -0.0262 |
| RRIRLRPPRLPRPRPRPHLEPRP | 0.0765 |
| RRIRLRPPRLPRPRPRPHMTPRP | -0.466 |
| RRIRLRPPRLPRPRPRPHQFPRP | 0.0562 |
| RRIRLRPPRLPRPRPRPHQGPRP | -0.0634 |
| RRIRLRPPRLPRPRPRPHQPPRP | 0.18 |
| RRIRLRPPRLPRPRPRPHRHPRP | -0.361 |
| RRIRLRPPRLPRPRPRPHSCPRP | -0.884 |
| RRIRLRPPRLPRPRPRPHSFPRP | 0.0434 |
| RRIRLRPPRLPRPRPRPHVKPRP | -0.333 |
| RRIRLRPPRLPRPRPRPHVPPRP | 0.0978 |
| RRIRLRPPRLPRPRPRPHWIPRP | -0.162 |
| RRIRLRPPRLPRPRPRPIAHPRP | -0.058 |
| RRIRLRPPRLPRPRPRPIANPRP | -0.00904 |
| RRIRLRPPRLPRPRPRPIAWPRP | 0.0351 |
| RRIRLRPPRLPRPRPRPIDEPRP | -0.178 |
| RRIRLRPPRLPRPRPRPIFQPRP | -0.192 |
| RRIRLRPPRLPRPRPRPIGFPRP | 0.0709 |

| Sequence | shrunken log2 fold change |
| --- | --- |
| RRIRLRPPRLPRPRPRPIGNPRP | 0.0592 |
| RRIRLRPPRLPRPRPRPIGSPRP | -0.0107 |
| RRIRLRPPRLPRPRPRPIHFPRP | -0.77 |
| RRIRLRPPRLPRPRPRPIHPPRP | -0.168 |
| RRIRLRPPRLPRPRPRPIIHPRP | -0.186 |
| RRIRLRPPRLPRPRPRPIIPPRP | -0.195 |
| RRIRLRPPRLPRPRPRPIIWPRP | -0.000825 |
| RRIRLRPPRLPRPRPRPIKQPRP | -0.00202 |
| RRIRLRPPRLPRPRPRPIKSPRP | -0.202 |
| RRIRLRPPRLPRPRPRPILRPRP | -0.156 |
| RRIRLRPPRLPRPRPRPILTPRP | -0.281 |
| RRIRLRPPRLPRPRPRPIMMPRP | -0.0614 |
| RRIRLRPPRLPRPRPRPINHPRP | -0.654 |
| RRIRLRPPRLPRPRPRPIPIPRP | -0.456 |
| RRIRLRPPRLPRPRPRPIPPPRP | 0.0351 |
| RRIRLRPPRLPRPRPRPIPQPRP | -0.0537 |
| RRIRLRPPRLPRPRPRPIQNPRP | -0.403 |
| RRIRLRPPRLPRPRPRPIQQPRP | -0.0102 |
| RRIRLRPPRLPRPRPRPITHPRP | -0.24 |
| RRIRLRPPRLPRPRPRPITIPRP | 0.0213 |
| RRIRLRPPRLPRPRPRPITNPRP | -0.391 |
| RRIRLRPPRLPRPRPRPIWWPRP | 0.94 |
| RRIRLRPPRLPRPRPRPIYVPRP | -0.0939 |
| RRIRLRPPRLPRPRPRPKAKPRP | 0.0705 |
| RRIRLRPPRLPRPRPRPKAVPRP | -0.0189 |
